This note sets out measurements from US20210047426A1 (MacroGenics, published 2021).

In experiment [1] the target is T1, Human CD123 on the surface of leukemic cell lines (human, UniProt P26951 19-378). The experiment in a line: cell-based or functional assay.
Experiment [2] addresses T2, Human CD123-His (soluble human IL3R-alpha) (human, UniProt P26951 19-305, limits assumed).
T2 construct: also called interleukin 3 receptor alpha chain; not shown: His tag
T2 sequence (looked up): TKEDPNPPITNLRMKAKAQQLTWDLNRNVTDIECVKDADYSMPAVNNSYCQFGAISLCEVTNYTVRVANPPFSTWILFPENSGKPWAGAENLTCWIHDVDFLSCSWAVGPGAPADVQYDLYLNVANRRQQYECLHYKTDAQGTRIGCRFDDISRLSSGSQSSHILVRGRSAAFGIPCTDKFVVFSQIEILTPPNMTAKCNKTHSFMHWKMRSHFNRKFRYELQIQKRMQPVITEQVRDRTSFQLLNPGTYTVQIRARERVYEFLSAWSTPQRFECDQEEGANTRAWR
In words: SPR (BIAcore 3000), antigen immobilized on the chip, DART-A injected, 1:1 Langmuir fit, mean of 3 experiments. Here is the method: (§1) Briefly, the carboxyl groups on the CMS sensor chip were activated with an injection of 0.2M N-ethyl-N-([…]) carbodiimide and 0.05M N-hydroxy-succinimide. Soluble CD3 or CD123 (1 μg/ml) was injected over the activated CMS surface in 10 mM sodium-acetate, pH 5.0, at flow rate 5 μL/min, followed by 1 M ethanolamine for deactivation. Binding experiments were performed in 10 mM HEPES, pH 7.4, 150 mM NaCl, 3 mM EDTA and 0.005% P20 surfactant. Regeneration of the immobilized receptor surfaces was performed by pulse injection of 10 mM glycine, pH 1.5. KD values were determined by a global fit of binding curves to the Langmuir 1:1 binding model (BIAevaluation software v4.1).
(§2) The data in Table 7 are averages of 3 independent experiments each performed in duplicates.

Experiment [3] addresses T3, Cynomolgus CD123-His (soluble cynomolgus IL3R-alpha) (cynomolgus monkey).
T3 construct: also called cynomolgus monkey CD123; monkey CD123
The experiment is described as above. The method, then:
as §1, §2

Experiment [4] concerns the target T2, Human CD123-His (soluble human …). In words: BIACORE surface plasmon resonance, purified human CD123 captured and immobilized, 1:1 binding fit. The text has this: (§3) BIACORE™ analyses measure the dissociation off-rate, kd. The binding affinity (KD) between an antibody and its target is a function of the kinetic constants for association (on rate, ka) and dissociation (off-rate, kd) according to the formula: KD=[kd]/[ka]. The BIACORE™ analysis uses surface plasmon resonance to directly measure these kinetic parameters. Recombinant human or cynomolgus monkey CD3 was directly immobilized to a support. Purified human or cynomolgus monkey CD123 was captured and immolbilized to a support. The time course of dissociation was measured and a […] of the data conducted. Binding constants and affinity were obtained using a 1:1 binding fit.

The target in experiment [5] is T3, Cynomolgus CD123-His (soluble …). The experiment in a line: BIACORE surface plasmon resonance, purified cynomolgus monkey CD123 captured and immobilized, 1:1 binding fit.
Description: as §3

Experiment [6] has as its target T2, Human CD123-His (soluble human …). The experiment in a line: bifunctional ELISA, plate coated with human CD123, detection with human CD3-biotin and streptavidin-HRP. The method, then:
(§4) A MaxiSorp ELISA plate (Nunc) coated overnight with the soluble human or cynomolgus IL3R-alpha (0.5 μg/mL) in bicarbonate buffer was blocked with 0.5% BSA; 0.1% Tween-20 in PBS (PBST/BSA) for 30 minutes at room temperature. […] HRP activity was detected by conversion of tetramethylbenzidine (BioFX) as substrate for 5 min; the reaction was terminated with […] of 1% […] and the absorbance read at 450 nm.

Experiment [7] concerns the target T3, Cynomolgus CD123-His (soluble …). In words: bifunctional ELISA, plate coated with cynomolgus monkey CD123, detection with human CD3-biotin and streptavidin-HRP. The method, then: as §4
Experiment [8] addresses T1, Human CD123 on the surface of leukemic …. The experiment in a line: FACS on Molm-13 cells, detection with a monoclonal antibody to the E-coil/K-coil region.

B1: Sequence-Optimized CD123 × CD3 Bi-Specific Diabody Having an Albumin-Binding Domain (DART-A w/ABD) (bispecific antibody)
chain 1: QAVVTQEPSLTVSPGGTVTLTCRSSTGAVTTSNYANWVQQKPGQAPRGLIGGTNKRAPWTPARFSGSLLGGKAALTITGAQAEDEADYYCALWYSNLWVFGGGTKLTVLGGGGSGGGGEVQLVQSGAELKKPGASVKVSCKASGYTFTDYYMKWVRQAPGQGLEWIGDIIPSNGATFYNQKFKGRVTITVDKSTSTAYMELSSLRSEDTAVYYCARSHLLRASWFAYWGQGTLVTVSSGGCGGGEVAALEKEVAALEKEVAALEKEVAALEKGGGSLAEAKVLANRELDKYGVSDYYKNLIDNAKSAEGVKALIDEILAALP
chain 2: DFVMTQSPDSLAVSLGERVTMSCKSSQSLLNSGNQKNYLTWYQQKPGQPPKLLIYWASTRESGVPDRFSGSGSGTDFTLTISSLQAEDVAVYYCQNDYSYPYTFGQGTKLEIKGGGSGGGGEVQLVESGGGLVQPGGSLRLSCAASGFTFSTYAMNWVRQAPGKGLEWVGRIRSKYNNYATYYADSVKDRFTISRDDSKNSLYLQMNSLKTEDTAVYYCVRHGNFGNSYVSWFAYWGQGTLVTVSSGGCGGGKVAALKEKVAALKEKVAALKEKVAALKE
On to B1, for which, in experiment [1], the “EC50 of redirected killing of Kasumi-3 cells (LDH release, E:T = 10:1)” value is 0.01 ng/mL; the “EC50 of redirected killing of Molm13 cells (LDH release, E:T = 10:1)” value worked out at 0.18 ng/mL; the “EC50 of redirected killing of RS4-11 cells (LDH release, E:T = 10:1)” value was 0.5 ng/mL; the “EC50 of redirected killing of TF-1 cells (LDH release, E:T = 10:1)” value was 0.46 ng/mL. Besides, in experiment [1], the “EC50 of redirected killing of THP-1 cells (LDH release, E:T = 10:1)” value is 0.24 ng/mL.

B2: Sequence-Optimized CD123 × CD3 Bi-Specific Diabody (DART-A) (bispecific antibody)
chain 1: QAVVTQEPSLTVSPGGTVTLTCRSSTGAVTTSNYANWVQQKPGQAPRGLIGGTNKRAPWTPARFSGSLLGGKAALTITGAQAEDEADYYCALWYSNLWVFGGGTKLTVLGGGGSGGGGEVQLVQSGAELKKPGASVKVSCKASGYTFTDYYMKWVRQAPGQGLEWIGDIIPSNGATFYNQKFKGRVTITVDKSTSTAYMELSSLRSEDTAVYYCARSHLLRASWFAYWGQGTLVTVSSGGCGGGEVAALEKEVAALEKEVAALEKEVAALEK
chain 2: DFVMTQSPDSLAVSLGERVTMSCKSSQSLLNSGNQKNYLTWYQQKPGQPPKLLIYWASTRESGVPDRFSGSGSGTDFTLTISSLQAEDVAVYYCQNDYSYPYTFGQGTKLEIKGGGSGGGGEVQLVESGGGLVQPGGSLRLSCAASGFTFSTYAMNWVRQAPGKGLEWVGRIRSKYNNYATYYADSVKDRFTISRDDSKNSLYLQMNSLKTEDTAVYYCVRHGNFGNSYVSWFAYWGQGTLVTVSSGGCGGGKVAALKEKVAALKEKVAALKEKVAALKE
notes: Two-chain heterodimer, the chains disulfide-bonded to one another; one CD123 site and one CD3 site; 58.9 kDa
Turning to B2, the Kd in experiment [2] was 0.13 nM; in experiment [3], 0.27 nM; in experiment [4], 0.14 nM; in experiment [5], 0.27 nM. Further, the koff in experiment [2] was determined as 0.00019 s⁻¹; in experiment [3] it was 0.0004 s⁻¹. The kon in experiment [2] is 1.6e+06 M⁻¹ s⁻¹; in experiment [3] it was 1.5e+06 M⁻¹ s⁻¹. Moreover, the results for the “EC50 (read off the curve)” value in experiment [6] and in experiment [7] were approximately 10 ng/mL and approximately 40 ng/mL, respectively.

B3: Control Bi-Specific Diabody (Control DART) (bispecific antibody)
chain 1: DVVMTQTPFSLPVSLGDQASISCRSSQSLVHSNGNTYLRWYLQKPGQSPKVLIYKVSNRFSGVPDRFSGSGSGTDFTLKISRVEAEDLGVYFCSQSTHVPWTFGGGTKLEIKGGGSGGGGEVQLVESGGGLVQPGGSLRLSCAASGFTFNTYAMNWVRQAPGKGLEWVARIRSKYNNYATYYADSVKDRFTISRDDSKNSLYLQMNSLKTEDTAVYYCVRHGNFGNSYVSWFAYWGQGTLVTVSSGGCGGGEVAALEKEVAALEKEVAALEKEVAALEK
chain 2: QAVVTQEPSLTVSPGGTVTLTCRSSTGAVTTSNYANWVQQKPGQAPRGLIGGTNKRAPWTPARFSGSLLGGKAALTITGAQAEDEADYYCALWYSNLWVFGGGTKLTVLGGGGSGGGGEVKLDETGGGLVQPGRPMKLSCVASGFTFSDYWMNWVRQSPEKGLEWVAQIRNKPYNYETYYSDSVKGRFTISRDDSKSSVYLQMNNLRVEDMGIYYCTGSYYGMDYWGQGTSVTVSSGGCGGGKVAALKEKVAALKEKVAALKEKVAALKE
notes: Bi-specific for fluorescein (FITC) and CD3; has no CD123 arm; also called FITC × CD3 control diabody
In the case of B3, the results for the binding result in experiment [6] and in experiment [8] were “no binding (tested: 1 ug/mL)” and “no binding”, respectively.
